# Data: patent US20240116985A1 (published 2024)
# Starred links: 1 amine or outer side, 2 acyl side, 3 side chain; linkers in the order of their positions; H or OH if unused. Positions of bridges follow the written chain, without caps; N, C: chain ends. Non-standard residues stand in square brackets, D forms with d. Primed or numbered codes have the meaning given here. B5(10) = 2-amino-2-(pent-4-en-1-yl)hept-6-enoic acid, bis(4-pentenyl)glycine, stitching residue bearing both staples, C=CCCCC(CCCC=C)(N[*:1])C(=O)[*:2]; PyrS2″ = (S)-3-amino-1-((pent-4-en-1-yloxy)carbonyl)pyrrolidine-3-carboxylic acid (stapling residue), C=CCCCOC(=O)N1CC[C@@](N[*:1])(C(=O)[*:2])C1; B5(4) = 2,2-bis(4-pentenyl)glycine = 2-amino-2-(pent-4-en-1-yl)hept-6-enoic acid (stitching residue), C=CCCCC(CCCC=C)(N[*:1])C(=O)[*:2]; B5(5) = 2,2-bis(4-pentenyl)glycine, 2-amino-2-(pent-4-en-1-yl)hept-6-enoic acid (stitching residue), C=CCCCC(CCCC=C)(N[*:1])C(=O)[*:2]; B5(33) = 2-amino-2-(pent-4-en-1-yl)hept-6-enoic acid (bis-pentenylglycine, two olefin side chains), C=CCCCC(CCCC=C)(N[*:1])C(=O)[*:2]; TfeGA = (S)-2-amino-3-((carboxymethyl)(2,2,2-trifluoroethyl)amino)propanoic acid, O=C([C@H](CN(CC(=O)[*:3])CC(F)(F)F)N[*:1])[*:2]; (EtSSpy)AspE = (S)-2-amino-4-oxo-4-(2-(pyridin-2-yldisulfaneyl)ethoxy)butanoic acid, O=C(C[C@H](N[*:1])C(=O)[*:2])OCCSSc1ccccn1; PyrS2 = (S)-3-amino-1-((pent-4-en-1-yloxy)carbonyl)pyrrolidine-3-carboxylic acid, C=CCCCOC(=O)N1CC[C@@](N[*:1])(C(=O)[*:2])C1; Qui = (S)-2-amino-3-(quinolin-2-yl)propanoic acid, O=C([C@H](Cc1ccc2ccccc2n1)N[*:1])[*:2]; AspSH = (S)-2-amino-4-mercapto-4-oxobutanoic acid, O=C(C[C@H](N[*:1])C(=O)[*:2])S[*:3]; B5 = 2-amino-2-(pent-4-en-1-yl)hept-6-enoic acid, C=CCCCC(CCCC=C)(N[*:1])C(=O)[*:2]; 2NH2F″ = O=C([C@H](Cc1ccccc1N[*:3])N[*:1])[*:2]; Phe(2-Cl) = N[C@@H](Cc1ccccc1Cl)C(=O)O; Phe(2-Me) = Cc1ccccc1C[C@H](N)C(=O)O; Bta = N[C@@H](Cc1csc2ccccc12)C(=O)O; Lys(iPr) = CC(C)NCCCC[C@H](N)C(=O)O; αAllylPro = C=CC[C@@]1(C(=O)O)CCCN1; tBuAla = CC(C)(C)C[C@H](N)C(=O)O; S8 = C=CCCCCCC[C@](C)(N)C(=O)O; PyrS2(4) = not defined here
# T1: B-cat-Halo (UniProt P35222 1-781)
# T1 sequence (looked up): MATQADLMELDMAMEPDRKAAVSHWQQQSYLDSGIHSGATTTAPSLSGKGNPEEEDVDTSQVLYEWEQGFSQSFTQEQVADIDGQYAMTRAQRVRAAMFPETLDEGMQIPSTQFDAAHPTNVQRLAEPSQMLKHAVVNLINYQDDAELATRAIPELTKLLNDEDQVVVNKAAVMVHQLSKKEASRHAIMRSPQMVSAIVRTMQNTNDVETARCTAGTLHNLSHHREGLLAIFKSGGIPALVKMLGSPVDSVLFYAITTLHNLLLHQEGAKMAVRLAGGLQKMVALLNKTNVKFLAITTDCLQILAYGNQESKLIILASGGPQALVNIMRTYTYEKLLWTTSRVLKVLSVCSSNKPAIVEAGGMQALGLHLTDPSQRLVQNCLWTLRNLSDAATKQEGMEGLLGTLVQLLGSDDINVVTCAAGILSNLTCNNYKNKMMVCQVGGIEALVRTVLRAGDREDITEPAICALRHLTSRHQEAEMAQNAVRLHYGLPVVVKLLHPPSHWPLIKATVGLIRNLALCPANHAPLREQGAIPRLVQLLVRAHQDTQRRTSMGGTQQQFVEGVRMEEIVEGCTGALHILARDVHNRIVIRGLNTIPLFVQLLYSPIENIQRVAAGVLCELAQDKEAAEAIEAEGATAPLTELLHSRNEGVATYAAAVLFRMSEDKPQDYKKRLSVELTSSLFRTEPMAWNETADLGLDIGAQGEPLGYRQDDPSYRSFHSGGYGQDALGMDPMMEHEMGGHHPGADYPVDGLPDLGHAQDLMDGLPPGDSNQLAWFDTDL
# T2: B-cat-Halo (beta-catenin HaloTag fusion expressed in HEK293 cells) (UniProt P35222 1-781)
# T2 sequence (looked up): T1 sequence (looked up)
# T3: beta-catenin (full-length, Uniprot ID P35222) (Homo sapiens (Human), UniProt P35222 2-781)
# T3 construct: The FP protocol says 'full-length beta-Catenin (Uniprot ID P35222)'; also called bCat; B-Catenin
# T3 sequence: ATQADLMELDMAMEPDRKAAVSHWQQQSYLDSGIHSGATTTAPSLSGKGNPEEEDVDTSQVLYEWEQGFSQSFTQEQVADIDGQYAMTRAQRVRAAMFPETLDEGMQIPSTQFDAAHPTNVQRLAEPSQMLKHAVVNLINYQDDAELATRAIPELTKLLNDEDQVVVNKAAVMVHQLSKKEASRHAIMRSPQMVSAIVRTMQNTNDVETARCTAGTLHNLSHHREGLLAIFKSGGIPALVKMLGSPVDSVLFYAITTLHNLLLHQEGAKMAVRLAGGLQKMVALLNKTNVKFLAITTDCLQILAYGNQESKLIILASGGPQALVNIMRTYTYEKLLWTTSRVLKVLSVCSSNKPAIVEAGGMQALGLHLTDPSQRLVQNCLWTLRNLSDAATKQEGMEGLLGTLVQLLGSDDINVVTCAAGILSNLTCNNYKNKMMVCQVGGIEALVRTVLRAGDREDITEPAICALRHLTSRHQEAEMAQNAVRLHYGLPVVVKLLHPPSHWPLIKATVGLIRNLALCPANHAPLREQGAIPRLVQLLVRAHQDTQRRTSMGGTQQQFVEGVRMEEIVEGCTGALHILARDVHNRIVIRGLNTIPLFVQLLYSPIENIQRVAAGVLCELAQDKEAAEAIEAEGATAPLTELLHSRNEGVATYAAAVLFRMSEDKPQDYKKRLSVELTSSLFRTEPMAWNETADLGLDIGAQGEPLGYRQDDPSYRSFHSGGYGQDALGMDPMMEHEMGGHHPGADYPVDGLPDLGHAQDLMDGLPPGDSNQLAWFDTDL
# B1: I-1276 (peptide)
# peptide: Ac-[αAllylPro]D[tBuAla][B5(5)]DD[Lys(iPr)]AFL[PyrS2″][Phe(2-Cl)][Bta]T-NH2
# modifications: staple 1-4; staple 4-11 (inferred); not fully specified; printed as Ac-PL3-Asp-Npg-B5-Asp-Asp-iPrLys-Ala-Phe-Leu-PyrS2-2C1F-BztA-Thr-NH2
# B2: I-1279 (peptide)
# peptide: Ac-[αAllylPro]D[tBuAla][B5(10)]DDAAF[Lys(iPr)][PyrS2][Phe(2-Cl)][Bta]T-NH2
# modifications: staple 1-4, 4-11
# B3: I-1277 (peptide)
# peptide: Ac-[αAllylPro]D[tBuAla][B5(5)]DD[Lys(iPr)]AFL[PyrS2][Phe(2-Cl)][Bta]L-NH2
# modifications: staple 1-4, 4-11; not fully specified; printed as Ac-PL3-Asp-Npg-B5-Asp-Asp-iPrLys-Ala-Phe-Leu-PyrS2-2C1F-BztA-Leu-NH2
# B4: I-1278 (peptide)
# peptide: Ac-[αAllylPro]D[tBuAla][B5(5)]DDAAF[Lys(iPr)][PyrS2][Phe(2-Cl)][Bta]Q-NH2
# modifications: staple 1-4, 4-11; not fully specified; printed as Ac-PL3-Asp-Npg-B5-Asp-Asp-Ala-Ala-Phe-iPrLys-PyrS2-2C1F-BztA-Gln-NH2
# B5: I-1280 (peptide)
# peptide: Ac-[αAllylPro]D[tBuAla][B5(10)]DDAAF[Lys(iPr)][PyrS2][Phe(2-Cl)][Bta]L-NH2
# modifications: staple 1-4, 4-11
# B6: I-1722 (peptide)
# peptide: Ac-[αAllylPro][AspSH][tBuAla][B5]DDAAFN[PyrS2][Phe(2-Cl)][Bta]Q-NH2
# modifications: staple 1-4, 4-11; not fully specified
# B7: I-1726 (peptide)
# peptide: Ac-[αAllylPro]D[tBuAla][B5]D[TfeGA]AAFL[PyrS2][Phe(2-Me)][Bta]Q-NH2
# modifications: staple 1-4, 4-11; also: -CH=CH- in each staple reduced to -CH2-CH2-
# B8: I-1724 (peptide)
# peptide: Ac-[αAllylPro][(EtSSpy)AspE][tBuAla][B5]DDAAFN[PyrS2][Phe(2-Cl)][Bta]Q-NH2
# modifications: staple 1-4, 4-11; not fully specified
# B9: I-1725 (peptide)
# peptide: Ac-[αAllylPro]D[tBuAla][B5]D[TfeGA]AAFL[PyrS2][Phe(2-Me)][Bta]Q-NH2
# modifications: staple 1-4, 4-11
# B10: I-1727 (peptide)
# peptide: Ac-[αAllylPro]D[tBuAla][B5(4)]DDAA[2NH2F″]N[PyrS2(4)][Phe(2-Cl)][Bta]Q-NH2
# modifications: staple 1-4, 4-11; not fully specified; reading uncertain
# B11: I-123: Ac-PL3-Asp-Ala-B5-Asp-Glu-Ala-Ala-Phe-Val-S8-Phe-Trp-Gln-NH2 (peptide)
# peptide: Ac-[αAllylPro]DA[B5(4)]DEAAFV[S8]FWQ-NH2
# modifications: staple 1-4, 4-11
# notes: Stapled (stitched) peptide
# B12: I-125: Ac-PL3-Asp-Ala-B5-Asp-Asn-Ala-Ala-Phe-Val-S8-Phe-Trp-Gln-NH2 (peptide)
# peptide: Ac-[αAllylPro]DA[B5(33)]DNAAFV[S8]FWQ-NH2
# modifications: staple 1-4, 4-11
# notes: Stapled peptide
# B13: I-127: Ac-PL3-Asp-Ala-B5-Asp-Gln-Ala-Ala-Phe-Val-S8-Phe-Trp-Gln-NH2 (peptide)
# peptide: XDAXDQAAFVXFWQ
# modifications: not fully specified; N-terminal Ac; PL3 at 1; B5 at 4; S8 at 11; C-terminal NH2; stapled by olefin metathesis (PL3-B5 and B5-S8)
# notes: Stapled peptide
# B14: I-135: Ac-PL3-Asp-Ala-B5-Asp-Glu-Ala-Ala-Phe-Val-S8-Phe-Trp-Ala-NH2 (peptide)
# peptide: Ac-[αAllylPro]DA[B5(4)]DEAAFV[S8]FWA-NH2
# modifications: staple 1-4, 4-11
# notes: Stapled peptide
# B15: I-143: Ac-PL3-Asp-Ala-B5-Asp-Glu-Ala-Ala-Phe-Val-S8-Phe-Qui-Gln-NH2 (peptide)
# peptide: Ac-[αAllylPro]DA[B5(4)]DEAAFV[S8]F[Qui]Q-NH2
# modifications: staple 1-4, 4-11
# notes: Stapled peptide
# Biological target: T1, B-cat-Halo
# Assay: cell-based or functional assay
row,Binder,NanoBRET Abs IC50 [µM]
1,B1,> 20
2,B2,22.9
3,B3,> 20
4,B4,18
5,B5,24.7

# Biological target: T2, B-cat-Halo (beta-catenin HaloTag fusion …)
# Assay: cell-based or functional assay
row,Binder,NanoBRET Abs IC50 [µM]
1,B6,> 20
2,B7,> 20
3,B8,29.7
4,B9,10
5,B10,34.1

# Biological target: T3, beta-catenin (full-length, Uniprot ID …)
# Assay: fluorescence polarization competition vs 5FAM-TCF4(10-53) on full-length beta-catenin
# Procedure: The plate was incubated protected from light for 60 minutes at 20° C. prior to read. Reads were performed on a CLARIOstar plate reader (BMG Labtech) in duplicate, and data were fitted to a 1:1 binding model with hill slope using an in-house script. All provided concentrations are final concentrations.
row,Binder,IC50 [µM]
1,B11,2.11
2,B12,3.06
3,B13,4.84
4,B14,1.87
5,B15,2.27
